T1: mFcγRIIb (Mus musculus, UniProt P08101)
T1 construct: extracellular region, C-terminal His- and GST-tag; also called mouse FcγRII
T1 sequence (receptor extracellular region, looked up): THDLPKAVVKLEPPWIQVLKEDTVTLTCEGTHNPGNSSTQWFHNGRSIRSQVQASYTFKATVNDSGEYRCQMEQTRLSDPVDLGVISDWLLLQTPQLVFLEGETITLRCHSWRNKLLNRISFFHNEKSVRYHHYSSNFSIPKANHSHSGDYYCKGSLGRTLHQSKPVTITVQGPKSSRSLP

T2: cynoFcγRIIb (Macaca fascicularis, UniProt A0A140HDP4)
T2 construct: extracellular region, C-terminal His- and GST-tag; also called cynomolgus monkey FcγRIIb
T2 sequence (receptor extracellular region): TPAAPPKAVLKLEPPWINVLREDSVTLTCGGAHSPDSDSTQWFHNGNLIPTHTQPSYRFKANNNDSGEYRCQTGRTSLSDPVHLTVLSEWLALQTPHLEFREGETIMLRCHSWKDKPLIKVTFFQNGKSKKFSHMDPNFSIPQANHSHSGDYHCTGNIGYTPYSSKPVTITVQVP

T3: human FcγRIIb receptor protein (R&D Systems) (human, UniProt P31994 46-217)
T3 construct: Bought protein injected over captured antibody in Biacore; also called CD32b
T3 sequence (looked up): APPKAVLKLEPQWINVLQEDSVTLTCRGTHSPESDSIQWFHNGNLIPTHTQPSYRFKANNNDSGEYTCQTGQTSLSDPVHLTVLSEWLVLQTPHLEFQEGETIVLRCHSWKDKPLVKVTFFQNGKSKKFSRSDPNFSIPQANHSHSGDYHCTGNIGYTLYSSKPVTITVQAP

T4: human FcγRIIa (131R), His- and GST-tagged (human, UniProt P12318 34-217)
T4 construct: Expressed in HEK293T cells, purified by nickel chromatography; also called R131 FcγRIIa; not shown: 6xHis and GST tags of the pTT5 vector
T4 sequence (looked up): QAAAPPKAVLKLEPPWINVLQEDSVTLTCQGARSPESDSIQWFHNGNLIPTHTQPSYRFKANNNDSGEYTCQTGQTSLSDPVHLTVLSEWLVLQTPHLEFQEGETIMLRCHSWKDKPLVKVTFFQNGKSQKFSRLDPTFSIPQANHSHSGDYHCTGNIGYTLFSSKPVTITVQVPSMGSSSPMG

T5: human FcγRIIa (131H), His- and GST-tagged (human, UniProt P12318 34-217)
T5 construct: also called H131 FcγRIIa; HIIa; not shown: 6xHis and GST tags of the pTT5 vector
T5 sequence (looked up): T4 sequence (looked up) with R134H

B1: L234W/S239E/S267E (antibody, human IgG1, kappa)
heavy: EVQLVESGGGLVKPGGSLKLSCAASGYTFTSYVMHWVRQAPGKGLEWIGYINPYNDGTKYNEKFQGRVTISSDKSISTAYMELSSLRSEDTAMYYCARGTYYYGTRVFDYWGQGTLVTVSSASTKGPSVFPLAPSSKSTSGGTAALGCLVKDYFPEPVTVSWNSGALTSGVHTFPAVLQSSGLYSLSSVVTVPSSSLGTQTYICNVNHKPSNTKVDKKVEPKSCDKTHTCPPCPAPEWLGGPEVFLFPPKPKDTLMISRTPEVTCVVVDVEHEDPEVKFNWYVDGVEVHNAKTKPREEQYNSTYRVVSVLTVLHQDWLNGKEYKCKVSNKALPAPIEKTISKAKGQPREPQVYTLPPSREEMTKNQVSLTCLVKGFYPSDIAVEWESNGQPENNYKTTPPVLDSDGSFFLYSKLTVDKSRWQQGNVFSCSVMHEALHNHYTQKSLSLSPGK
light: DIVMTQSPATLSLSPGERATLSCRSSKSLQNVNGNTYLYWFQQKPGQSPQLLIYRMSNLNSGVPDRFSGSGSGTEFTLTISSLEPEDFAVYYCMQHLEYPITFGAGTKLEIKRTVAAPSVFIFPPSDEQLKSGTASVVCLLNNFYPREAKVQWKVDNALQSGNSQESVTEQDSKDSTYSLSSTLTLSKADYEKHKVYACEVTHQGLSSPVTKSFNRGEC
notes: HuAM4G7 anti-CD19 IgG1 (m1) with these Fc substitutions, EU index; copies: 2 + 2
B2: G236D/S239D/S267E (antibody, human IgG1, kappa)
heavy: B1 heavy with W238L, G240D, E243D
light: B1 light
notes: as for B1
B3: L328F (antibody, human IgG1, kappa)
heavy: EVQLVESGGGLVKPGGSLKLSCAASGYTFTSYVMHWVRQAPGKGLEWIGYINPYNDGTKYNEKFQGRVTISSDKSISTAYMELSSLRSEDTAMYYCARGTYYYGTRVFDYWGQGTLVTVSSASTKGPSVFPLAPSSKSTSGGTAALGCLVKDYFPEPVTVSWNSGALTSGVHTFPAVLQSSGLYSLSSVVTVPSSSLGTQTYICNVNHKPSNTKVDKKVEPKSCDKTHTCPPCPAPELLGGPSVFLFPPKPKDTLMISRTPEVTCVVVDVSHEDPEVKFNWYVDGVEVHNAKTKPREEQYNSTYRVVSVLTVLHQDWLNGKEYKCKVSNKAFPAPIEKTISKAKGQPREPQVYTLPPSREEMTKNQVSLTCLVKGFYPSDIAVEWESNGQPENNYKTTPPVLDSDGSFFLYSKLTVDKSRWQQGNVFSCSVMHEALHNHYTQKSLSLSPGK
light: B1 light
notes: HuAM4G7 anti-CD19 IgG1 (m1) with this Fc substitution, EU index; copies: 2 + 2
B4: L234F/S267E (antibody, human IgG1, kappa)
heavy: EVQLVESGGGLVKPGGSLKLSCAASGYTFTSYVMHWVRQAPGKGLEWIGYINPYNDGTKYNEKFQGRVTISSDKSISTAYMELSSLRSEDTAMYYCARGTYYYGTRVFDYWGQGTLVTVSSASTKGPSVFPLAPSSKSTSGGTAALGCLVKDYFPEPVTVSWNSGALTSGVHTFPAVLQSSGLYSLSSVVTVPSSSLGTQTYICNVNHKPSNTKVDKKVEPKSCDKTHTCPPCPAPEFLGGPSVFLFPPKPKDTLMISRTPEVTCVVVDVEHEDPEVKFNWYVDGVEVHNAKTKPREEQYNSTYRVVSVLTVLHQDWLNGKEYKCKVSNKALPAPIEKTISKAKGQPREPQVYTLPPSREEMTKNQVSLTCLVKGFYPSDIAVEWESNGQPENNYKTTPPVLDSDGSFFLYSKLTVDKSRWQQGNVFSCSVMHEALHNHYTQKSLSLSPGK
light: B1 light
notes: as for B1
B5: G237N/S267E (antibody, human IgG1, kappa)
heavy: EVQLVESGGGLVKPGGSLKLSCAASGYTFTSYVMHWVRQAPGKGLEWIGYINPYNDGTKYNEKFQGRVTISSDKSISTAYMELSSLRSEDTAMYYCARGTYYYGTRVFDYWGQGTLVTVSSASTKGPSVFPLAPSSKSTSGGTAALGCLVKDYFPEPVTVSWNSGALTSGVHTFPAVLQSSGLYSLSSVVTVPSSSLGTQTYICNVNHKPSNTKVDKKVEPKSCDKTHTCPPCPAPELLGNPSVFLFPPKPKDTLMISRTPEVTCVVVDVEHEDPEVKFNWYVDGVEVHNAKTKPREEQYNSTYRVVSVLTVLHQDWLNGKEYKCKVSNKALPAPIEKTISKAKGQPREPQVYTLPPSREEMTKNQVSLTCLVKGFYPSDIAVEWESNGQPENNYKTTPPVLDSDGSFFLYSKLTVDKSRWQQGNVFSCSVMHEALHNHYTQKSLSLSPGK
light: B1 light
notes: as for B1
B6: L234W (antibody, human IgG1, kappa)
heavy: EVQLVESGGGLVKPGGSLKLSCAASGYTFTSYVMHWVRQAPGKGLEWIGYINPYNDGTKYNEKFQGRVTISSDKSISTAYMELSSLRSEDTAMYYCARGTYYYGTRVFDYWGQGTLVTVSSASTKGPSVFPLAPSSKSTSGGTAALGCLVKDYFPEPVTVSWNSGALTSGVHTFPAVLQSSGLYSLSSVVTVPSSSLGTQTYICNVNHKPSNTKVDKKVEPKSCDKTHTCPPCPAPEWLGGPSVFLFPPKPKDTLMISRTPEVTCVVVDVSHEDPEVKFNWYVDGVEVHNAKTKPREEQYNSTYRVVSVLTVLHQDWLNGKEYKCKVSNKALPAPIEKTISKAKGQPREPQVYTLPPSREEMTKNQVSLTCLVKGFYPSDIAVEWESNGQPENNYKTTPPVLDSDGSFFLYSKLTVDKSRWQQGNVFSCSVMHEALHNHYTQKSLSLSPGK
light: B1 light
notes: as for B3
B7: G237D/S267E (antibody, human IgG1, kappa)
heavy: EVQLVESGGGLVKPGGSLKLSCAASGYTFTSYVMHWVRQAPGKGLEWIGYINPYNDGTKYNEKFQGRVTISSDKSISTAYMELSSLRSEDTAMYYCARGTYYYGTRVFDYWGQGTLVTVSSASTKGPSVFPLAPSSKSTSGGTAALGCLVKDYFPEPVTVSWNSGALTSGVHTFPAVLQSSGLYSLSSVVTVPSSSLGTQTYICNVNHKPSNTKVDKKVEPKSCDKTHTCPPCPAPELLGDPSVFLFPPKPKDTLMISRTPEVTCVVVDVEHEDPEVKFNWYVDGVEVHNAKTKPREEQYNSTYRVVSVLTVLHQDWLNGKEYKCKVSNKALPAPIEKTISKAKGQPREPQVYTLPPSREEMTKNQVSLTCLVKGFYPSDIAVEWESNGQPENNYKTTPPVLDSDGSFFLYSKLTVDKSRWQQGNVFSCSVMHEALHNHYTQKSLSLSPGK
light: B1 light
notes: as for B1
B8: G236D/S267E/L328F (antibody, human IgG1, kappa)
heavy: B1 heavy with W238L, G240D, E243S, L332F
light: B1 light
notes: as for B1
B9: L234E/S267E (antibody, human IgG1, kappa)
heavy: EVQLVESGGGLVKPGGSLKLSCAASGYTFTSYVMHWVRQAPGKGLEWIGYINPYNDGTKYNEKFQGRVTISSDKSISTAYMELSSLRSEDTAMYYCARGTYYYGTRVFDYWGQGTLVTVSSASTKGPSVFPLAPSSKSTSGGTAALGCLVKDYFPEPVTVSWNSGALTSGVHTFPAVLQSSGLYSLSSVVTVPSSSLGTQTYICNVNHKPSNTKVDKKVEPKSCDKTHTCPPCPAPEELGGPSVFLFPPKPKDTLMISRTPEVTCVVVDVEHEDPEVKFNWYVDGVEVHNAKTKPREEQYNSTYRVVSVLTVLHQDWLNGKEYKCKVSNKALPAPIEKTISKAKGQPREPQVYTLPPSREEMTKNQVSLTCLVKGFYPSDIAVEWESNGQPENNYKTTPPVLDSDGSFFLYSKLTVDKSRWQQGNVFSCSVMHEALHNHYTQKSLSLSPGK
light: B1 light
notes: as for B1
B10: G236T (antibody, human IgG1, kappa)
heavy: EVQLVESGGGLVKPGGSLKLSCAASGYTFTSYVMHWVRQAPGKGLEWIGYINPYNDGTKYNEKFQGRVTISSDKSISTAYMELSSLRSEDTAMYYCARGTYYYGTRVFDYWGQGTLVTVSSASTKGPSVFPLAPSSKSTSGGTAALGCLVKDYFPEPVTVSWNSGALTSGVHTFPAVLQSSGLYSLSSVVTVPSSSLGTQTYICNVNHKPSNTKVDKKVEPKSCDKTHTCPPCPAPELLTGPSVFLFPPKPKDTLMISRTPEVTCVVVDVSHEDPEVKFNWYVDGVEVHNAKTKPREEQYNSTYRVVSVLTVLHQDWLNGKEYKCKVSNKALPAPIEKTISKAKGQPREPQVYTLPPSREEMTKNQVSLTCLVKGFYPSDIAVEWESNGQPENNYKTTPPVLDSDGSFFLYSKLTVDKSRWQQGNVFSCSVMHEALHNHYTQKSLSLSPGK
light: B1 light
notes: as for B3
B11: G236D/S267E/H268E (antibody, human IgG1, kappa)
heavy: B1 heavy with W238L, G240D, E243S, H272E
light: B1 light
notes: as for B1
B12: L234E/S267E/L328F (antibody, human IgG1, kappa)
heavy: B1 heavy with W238E, E243S, L332F
light: B1 light
notes: as for B1

Numbering of substitutions follows the chain as printed. Numbers in names are those of the source.

T6 sequence (P08637 17-208 F176V): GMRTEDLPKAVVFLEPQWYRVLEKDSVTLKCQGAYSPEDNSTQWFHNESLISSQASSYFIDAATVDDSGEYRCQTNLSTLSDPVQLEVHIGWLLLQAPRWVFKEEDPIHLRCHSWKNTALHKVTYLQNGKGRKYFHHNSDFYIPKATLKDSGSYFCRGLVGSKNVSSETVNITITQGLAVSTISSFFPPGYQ

The target in the first test is T1, mFcγRIIb. As to the kind of experiment: SPR.
Turning to B1, the “Fold vs WT IgG1 (Kd)” value came out at 0.761 fold.

The target of another test is T2, cynoFcγRIIb. Kind of test: SPR.
As for B1, the “Fold vs WT IgG1 (Kd)” value came to 2.25 fold.

The next test deals with T3, human FcγRIIb receptor protein (R&D …). Kind of test: SPR.
As to B2, the “Fold vs WT IgG1” value is 84.8 fold and the equilibrium dissociation constant (Kd) was found to be 17.3 nM.

On to B3, for which binding was put at a Kd of 541 nM. That is a sub-micromolar value.

For the molecule B4, the “Fold vs WT IgG1” value worked out at 26.4 fold and the Kd is 55.7 nM.

For B5, the “Fold vs WT IgG1” value was determined as 40.5 fold and the Kd was 36.2 nM.

Consider B6, for which binding was put at a Kd of 1770 nM.

On to B7, for which the “Fold vs WT IgG1” value came to 17 fold and the Kd is 86.1 nM.

As for B8, the “Fold vs WT IgG1” value is 149 fold and the Kd amounted to 9.87 nM.

Consider B9, for which the “Fold vs WT IgG1” value was found to be 15.1 fold and the Kd turned out to be 97 nM.

Take B10: the “Fold vs WT IgG1” value worked out at 0.00225 fold and the Kd came to 652000 nM.

For B11, the “Fold vs WT IgG1” value worked out at 110 fold and binding was put at a Kd of 13.4 nM.

As for B1, the “Fold vs WT IgG1” value was 42.3 fold and the Kd amounted to 34.7 nM.

Consider B12, for which the “Fold vs WT IgG1” value is 195 fold and the Kd was found to be 7.53 nM.

A further test deals with T4, human FcγRIIa (131R), His- and …. Kind of test: SPR.
In the case of B2, the “Fold vs WT IgG1” value was determined as 26.7 fold and binding was put at a Kd of 32.2 nM.

Turning to B3, the Kd amounted to 166 nM.

On to B4, for which the “Fold vs WT IgG1” value amounted to 20.7 fold and binding was characterised by a dissociation constant (Kd) of 41.6 nM.

For the molecule B5, the “Fold vs WT IgG1” value came to 61.5 fold and the Kd is 14 nM.

Take B7: the “Fold vs WT IgG1” value was determined as 13.6 fold and binding was put at a Kd of 63.1 nM.

For the molecule B8, the “Fold vs WT IgG1” value turned out to be 59.9 fold and the affinity, expressed as Kd, was 14.3 nM.

For B9, the “Fold vs WT IgG1” value worked out at 10.7 fold and the Kd worked out at 80.4 nM.

As to B10, the “Fold vs WT IgG1” value was determined as 0.35 fold and the Kd was 2460 nM.

For the molecule B11, the “Fold vs WT IgG1” value turned out to be 29.9 fold and the Kd turned out to be 28.7 nM.

As for B1, the “Fold vs WT IgG1” value turned out to be 98.5 fold and the Kd worked out at 8.72 nM.

For B12, the “Fold vs WT IgG1” value turned out to be 174 fold and the affinity, expressed as Kd, was 4.93 nM.

In a further test the target is T5, human FcγRIIa (131H), His- and …. Kind of test: SPR.
Turning to B2, the “Fold vs WT IgG1” value was found to be 0.217 fold and binding was characterised by a dissociation constant (Kd) of 2980 nM.

As for B4, the “Fold vs WT IgG1” value was 0.509 fold and binding was put at a Kd of 1270 nM.

With B6, the Kd amounted to 1160 nM.

On to B7, for which the binding result is reported as “no binding”.

In the case of B8, the “Fold vs WT IgG1” value is 0.0301 fold and the affinity, expressed as Kd, was 21500 nM.

For the molecule B9, the binding result is “no binding”.

Regarding B10, the “Fold vs WT IgG1” value amounted to 0.486 fold and the Kd worked out at 1330 nM.

With B11, the “Fold vs WT IgG1” value was found to be 0.103 fold and the Kd is 6300 nM.

Turning to B12, the “Fold vs WT IgG1” value turned out to be 0.0725 fold and the Kd came to 8920 nM.

Another test has as its target T6, human FcγRIIIa (158V), His- and GST-tagged (human, UniProt P08637 17-208).
T6 construct: also called V158 FcγRIIIa; VIIIa; not shown: 6xHis and GST tags of the pTT5 vector
As to the kind of experiment: SPR.
With B2, the binding result is “no binding”.

B3 returned a dissociation constant Kd of 58.4 µM.

Regarding B4, the “Fold vs WT IgG1” value stood at 0.0938 fold and the affinity, expressed as Kd, was 2.04 µM.

Take B5: the binding result is “no binding”.

B6 showed a Kd of 6.59 µM.

Consider B7, for which the binding result is reported as “no binding”.

For B8, the binding result is “no binding”.

Consider B9, for which the binding result is “no binding”.

For B10, the binding result was “no binding”.

For the molecule B11, the binding result is “no binding”.

Regarding B12, the binding result was “no binding”.

For a further test, the target named is T7, human FcγRI receptor protein (R&D Systems) (human, UniProt P12314 16-288).
T7 construct: also called soluble FcγRI; solFcγRI
T7 sequence (P12314 16-288 limits assumed): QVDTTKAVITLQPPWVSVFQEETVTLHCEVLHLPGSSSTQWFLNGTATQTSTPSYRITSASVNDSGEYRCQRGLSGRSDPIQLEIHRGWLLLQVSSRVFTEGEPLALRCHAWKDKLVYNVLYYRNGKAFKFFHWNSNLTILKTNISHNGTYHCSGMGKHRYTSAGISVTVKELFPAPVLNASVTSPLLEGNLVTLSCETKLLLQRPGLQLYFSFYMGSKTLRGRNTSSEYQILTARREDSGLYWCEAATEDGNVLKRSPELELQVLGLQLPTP
As to the kind of experiment: SPR.
B2: the “Fold vs WT IgG1” value was 0.0685 fold and binding was put at a Kd of 4.81 nM.

Turning to B3, the dissociation constant Kd came out at 0.452 nM.

For B4, the “Fold vs WT IgG1” value is 0.661 fold and binding was characterised by a dissociation constant (Kd) of 0.498 nM.

For B5, the “Fold vs WT IgG1” value turned out to be 0.101 fold and the Kd was 3.25 nM.

As for B6, binding was put at a Kd of 10.5 nM.

Turning to B7, the “Fold vs WT IgG1” value came out at 0.0874 fold and the equilibrium dissociation constant (Kd) came out at 3.77 nM.

On to B8, for which the “Fold vs WT IgG1” value came to 0.0736 fold and the Kd came to 4.48 nM.

Take B9: the “Fold vs WT IgG1” value was 0.131 fold and the equilibrium dissociation constant (Kd) is 2.51 nM.

For the molecule B10, the “Fold vs WT IgG1” value came to 0.0157 fold and binding was characterised by a dissociation constant (Kd) of 21 nM.

With B11, the “Fold vs WT IgG1” value is 0.0902 fold and the Kd was 3.65 nM.

With B12, the “Fold vs WT IgG1” value was 0.0425 fold and the dissociation constant Kd turned out to be 7.75 nM.

The record behind these values is patent US20130315910A1 (Xencor, published 2013).
